Like-named read-outs stand apart in the source and are kept apart here.

The target in experiment [1] is mouse Ang2 (mouse) (UniProt O35608). Description: competition ELISA: mAng2 binding to mTie2.
The target of experiment [2] is human Ang2 (human) (UniProt O15123). Description: competition ELISA: hAng2 binding to hTie2.
The target in experiment [3] is mouse Ang2 (mouse) (UniProt O35608). Description: competition ELISA: mAng2 binding to mTie2. The source holds these as a separate data set. A general note: ELISA stands for enzyme-linked immunosorbent assay.
Experiment [4] concerns the target human Ang2 (human) (UniProt O15123). Description: competition ELISA hAng2/hTie2-Fc.
The target is the same in experiment [5]. Description: competition ELISA hAng2/hTie2-Fc, with 0.5 uM HSA [continued].
Experiment [6] deals with mouse Ang2 (mouse) (UniProt O35608). Put plainly: competition ELISA: mAng2 binding to mTie2. This is another data set of the same source.
Experiment [7] has as its target human Ang2 (human) (UniProt O15123). Description: competition ELISA hAng2/hTie2-Fc. The source holds these as a separate data set.
The target is the same in experiment [8]. Description: competition ELISA hAng2/hTie2-Fc, with 0.5 uM HSA [continued]. This is another data set of the same source.
In experiment [9] the target is mouse Ang2 (mouse) (UniProt O35608). Put plainly: competition ELISA: mAng2 binding to mTie2. This is another data set of the same source.
Experiment [10] deals with mouse DLL4, full length, overexpressed on CHO or HEK293 cells (mouse) (UniProt Q9JI71). Put plainly: competition FMAT: labelled hNotch1-Fc on CHO-mDLL4 cells, with 25 uM HSA [continued].
mouse DLL4, full length, overexpressed on CHO or HEK293 cells (mouse), sequence (Q9JI71 27-686): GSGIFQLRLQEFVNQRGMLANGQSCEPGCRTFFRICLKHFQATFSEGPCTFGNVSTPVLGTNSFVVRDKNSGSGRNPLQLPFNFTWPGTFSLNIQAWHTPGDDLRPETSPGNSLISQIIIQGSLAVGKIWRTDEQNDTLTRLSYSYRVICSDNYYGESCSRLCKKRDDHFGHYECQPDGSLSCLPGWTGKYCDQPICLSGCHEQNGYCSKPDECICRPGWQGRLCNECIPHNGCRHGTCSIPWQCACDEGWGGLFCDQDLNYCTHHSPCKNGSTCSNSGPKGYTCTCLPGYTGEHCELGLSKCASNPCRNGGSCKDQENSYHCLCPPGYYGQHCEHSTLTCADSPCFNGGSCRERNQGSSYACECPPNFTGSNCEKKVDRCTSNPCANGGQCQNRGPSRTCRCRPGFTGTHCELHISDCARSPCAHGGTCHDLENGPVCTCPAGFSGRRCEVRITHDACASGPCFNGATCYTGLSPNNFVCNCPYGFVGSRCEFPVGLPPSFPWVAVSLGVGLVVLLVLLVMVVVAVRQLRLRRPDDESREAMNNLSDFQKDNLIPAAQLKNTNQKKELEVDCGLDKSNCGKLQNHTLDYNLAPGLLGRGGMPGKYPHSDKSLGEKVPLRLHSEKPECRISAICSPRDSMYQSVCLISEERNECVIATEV
The target in experiment [11] is recombinant human DLL4 extracellular domain, C-terminally His-tagged (R&D Systems) (human) (UniProt Q9NR61). Description: competition ELISA: 8 nM biotinylated hDLL4 binding to coated hNotch1/Fc.
Experiment [12] addresses mouse DLL4, full length, overexpressed on CHO or HEK293 cells (mouse) (UniProt Q9JI71). Description: FMAT, Notch1/Fc on CHO-mDLL4.
Experiment [13] has the same target. Description: competition FMAT: labelled hNotch1/Fc binding to CHO-mDLL4 cells.
For experiment [14], the target named is recombinant mouse DLL4 extracellular domain, C-terminally His-tagged (R&D Systems) (mouse) (UniProt Q9JI71). Description: binding ELISA on coated rmDLL4.
recombinant mouse DLL4 extracellular domain, C-terminally His-tagged (R&D Systems) (mouse), sequence (Q9JI71 27-525 limits assumed): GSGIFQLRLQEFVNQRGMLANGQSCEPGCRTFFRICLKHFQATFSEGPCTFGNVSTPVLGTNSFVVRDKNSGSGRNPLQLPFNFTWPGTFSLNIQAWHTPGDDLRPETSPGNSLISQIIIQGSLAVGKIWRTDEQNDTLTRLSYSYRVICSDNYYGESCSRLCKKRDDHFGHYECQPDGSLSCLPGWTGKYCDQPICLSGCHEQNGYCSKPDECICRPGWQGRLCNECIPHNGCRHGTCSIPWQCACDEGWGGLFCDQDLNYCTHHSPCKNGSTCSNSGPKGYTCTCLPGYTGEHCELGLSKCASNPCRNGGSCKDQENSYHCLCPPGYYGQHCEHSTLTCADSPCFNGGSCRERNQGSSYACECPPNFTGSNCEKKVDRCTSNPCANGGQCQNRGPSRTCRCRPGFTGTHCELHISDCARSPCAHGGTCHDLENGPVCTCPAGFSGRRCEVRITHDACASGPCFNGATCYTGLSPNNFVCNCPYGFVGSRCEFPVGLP
Experiment [15] deals with human DLL4, full length, overexpressed on CHO or HEK293 cells (human) (UniProt Q9NR61). Description: competition FMAT: labelled hNotch1-Fc on CHO-hDLL4 cells.
Experiment [16] has as its target recombinant human DLL4 extracellular domain, C-terminally His-tagged (R&D Systems) (human) (UniProt Q9NR61). Put plainly: competition ELISA: 8 nM biotinylated hDLL4 + binder, residual binding to coated hNotch1-Fc.
Experiment [17] addresses mouse DLL4, full length, overexpressed on CHO or HEK293 cells (mouse) (UniProt Q9JI71). Description: competition FMAT: labelled hNotch1-Fc on CHO-mDLL4 cells.
Experiment [18] has as its target human DLL4, full length, overexpressed on CHO or HEK293 cells (human) (UniProt Q9NR61). Put plainly: cell-based or functional assay.
The target is the same in experiment [19]. Description: competition FMAT: labelled hNotch1-Fc on CHO-hDLL4 cells, with 25 uM HSA [continued].
The target is the same in experiment [20]. Description: competition FMAT: labelled hNotch1-Fc on CHO-hDLL4 cells. The source holds these as a separate data set.
Experiment [21] has the same target. Put plainly: FMAT, Notch1/Fc on CHO-hDLL4.
In experiment [22] the target is mouse DLL4, full length, overexpressed on CHO or HEK293 cells (mouse) (UniProt Q9JI71). Put plainly: competition FMAT: labelled hNotch1/Fc binding to CHO-mDLL4 cells; panel '+ HSA', HSA not marked for this curve [continued].
For experiment [23], the target named is recombinant human DLL4 extracellular domain, C-terminally His-tagged (R&D Systems) (human) (UniProt Q9NR61). Description: hDLL4/hNotch1 competition AlphaScreen. (In general: Alpha assays give light when donor and acceptor beads are brought close together.)
For experiment [24], the target named is human DLL4, full length, overexpressed on CHO or HEK293 cells (human) (UniProt Q9NR61). Put plainly: competition FMAT: labelled hNotch1/Fc binding to CHO-hDLL4 cells.
Experiment [25] concerns the target mouse DLL4, full length, overexpressed on CHO or HEK293 cells (mouse) (UniProt Q9JI71). Put plainly: competition FMAT: labelled hNotch1/Fc binding to CHO-mDLL4 cells; panel '+ HSA', HSA not marked for this curve [continued]. This is another data set of the same source.
Experiment [26] concerns the target human DLL4, full length, overexpressed on CHO or HEK293 cells (human) (UniProt Q9NR61). Put plainly: competition FMAT: labelled hNotch1/Fc binding to CHO-hDLL4 cells; panel '+ HSA', HSA not marked for this curve [continued].
Experiment [27] has as its target mouse DLL4, full length, overexpressed on CHO or HEK293 cells (mouse) (UniProt Q9JI71). Put plainly: competition FMAT: labelled hNotch1-Fc on CHO-mDLL4 cells. The source holds these as a separate data set.
For experiment [28] the target is unchanged. Description: competition FMAT: labelled hNotch1-Fc on CHO-mDLL4 cells, with 25 uM HSA [continued]. The source holds these as a separate data set.
The target in experiment [29] is human DLL4, full length, overexpressed on CHO or HEK293 cells (human) (UniProt Q9NR61). Put plainly: competition FMAT: labelled hNotch1-Fc on CHO-hDLL4 cells, with 25 uM HSA [continued]. The source holds these as a separate data set.
Experiment [30] concerns the target recombinant human DLL4 extracellular domain, C-terminally His-tagged (R&D Systems) (human) (UniProt Q9NR61). Put plainly: hDLL4/hNotch1-Fc competition ELISA.
For experiment [31] the target is unchanged. Put plainly: binding ELISA on coated rhDLL4.
Experiment [32] addresses mouse DLL4, full length, overexpressed on CHO or HEK293 cells (mouse) (UniProt Q9JI71). Put plainly: competition FMAT: labelled hNotch1/Fc binding to CHO-mDLL4 cells. The source holds these as a separate data set.
For experiment [33], the target named is recombinant human DLL4 extracellular domain, C-terminally His-tagged (R&D Systems) (human) (UniProt Q9NR61). Description: competition ELISA: 8 nM biotinylated hDLL4 + binder, residual binding to coated hNotch1-Fc. This is another data set of the same source.

mouse Ang2 (mouse), sequence (O35608 19-496 limits assumed): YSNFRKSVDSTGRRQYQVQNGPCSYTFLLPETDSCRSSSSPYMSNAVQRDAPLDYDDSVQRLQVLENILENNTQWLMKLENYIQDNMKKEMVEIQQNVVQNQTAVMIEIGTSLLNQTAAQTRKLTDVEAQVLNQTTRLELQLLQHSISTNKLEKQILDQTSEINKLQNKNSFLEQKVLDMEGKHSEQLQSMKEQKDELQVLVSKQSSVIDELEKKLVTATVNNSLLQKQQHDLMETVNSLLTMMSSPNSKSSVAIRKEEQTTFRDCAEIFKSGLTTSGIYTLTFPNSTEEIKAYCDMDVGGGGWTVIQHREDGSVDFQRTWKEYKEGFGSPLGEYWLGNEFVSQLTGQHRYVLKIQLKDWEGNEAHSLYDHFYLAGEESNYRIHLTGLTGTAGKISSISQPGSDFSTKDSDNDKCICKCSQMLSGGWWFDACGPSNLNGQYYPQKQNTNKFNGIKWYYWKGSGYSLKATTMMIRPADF
human Ang2 (human), sequence (O15123 19-496 limits assumed): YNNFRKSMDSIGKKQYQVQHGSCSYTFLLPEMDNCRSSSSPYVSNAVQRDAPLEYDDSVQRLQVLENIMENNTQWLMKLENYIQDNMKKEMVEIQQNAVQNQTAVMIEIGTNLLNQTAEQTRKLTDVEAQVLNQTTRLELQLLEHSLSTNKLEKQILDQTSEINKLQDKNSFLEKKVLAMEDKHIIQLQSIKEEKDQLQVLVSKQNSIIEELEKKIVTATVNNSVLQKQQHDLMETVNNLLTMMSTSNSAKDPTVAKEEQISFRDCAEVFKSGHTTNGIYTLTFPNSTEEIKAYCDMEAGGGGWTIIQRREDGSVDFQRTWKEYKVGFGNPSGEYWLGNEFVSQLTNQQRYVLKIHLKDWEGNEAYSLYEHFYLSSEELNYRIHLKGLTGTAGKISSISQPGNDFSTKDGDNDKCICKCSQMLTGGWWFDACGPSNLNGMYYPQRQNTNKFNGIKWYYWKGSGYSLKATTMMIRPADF

Turning to AMG386, the IC50 (read off the curve) in [1] was determined as 0.009 nM; in experiment [2] it was 0.003 nM; in experiment [3], 0.004 nM; in experiment [4], 0.005 nM; in experiment [5], 0.004 nM; in experiment [6], 0.003 nM. The IC50 (read off the curve) in experiment [7] is 0.004 nM; in [8], 0.005 nM; in [9] it was 0.007 nM.

What is called IC50 is the concentration that gives 50% inhibition. As usually defined, the EC50 (read off the curve) is the midpoint of the concentration-response curve. Take “anti-DLL4 Fab fragment (Fab of the Genentech DII4 mAb of US 2008/0014196)”: the IC50 (read off the curve) in experiment [10] was 2 nM; in experiment [11], 3 nM; in experiment [13], 3 nM; in experiment [15] it was 7 nM; in experiment [16], 4 nM; in [17] it was 2 nM. The IC50 (read off the curve) was 4 nM in experiment [19]; 5 nM in experiment [20]; 2 nM in [22]; 4 nM in experiment [24]; 3 nM in experiment [25]; 3 nM in experiment [26]. The IC50 (read off the curve) in [27] was found to be 1 nM; in [28] it was 1 nM; in experiment [29] it was 7 nM; in experiment [32], 2 nM; in experiment [33] it was 5 nM. The half-inhibitory concentration (IC50) was found to be 2.3 nM in experiment [12], 5.4 nM in [21], 0.3 nM in experiment [23] and 0.7 nM in experiment [30]. The figures for the half-maximal effective concentration (EC50 (read off the curve)) in experiment [14] and in [31] were 0.9 nM and 0.8 nM, respectively. Besides, the IC50, DLL4/Notch1 reporter assay (luciferase; co-culture with HEK293-hDII4) in [18] was 133 nM.

Source of the values: US20130078247A1.
